The values that follow come from patent US20110311555A1.

This assay has as its target endogenous AP-1 (activator protein 1) in 293 cells, activated by MEKK1. As to the kind of experiment: cell-based or functional assay. The settings on record: scale: normalized promoter activity.

In turn, “Tcl1 R52H (pCMV5-TCL1 R52H construct) (from UniProt P56279 1-114)” gave an AP-1 dependent transactivation (pAP-1-Luc reporter, MEKK1-activated, 293 cells), normalized promoter activity of 176.
